In the supplement of paper PMC5998384:

Legend:
[1] = test system: HeLa Kyoto; experiment: solubility change mitosis vs G1/S (difference of NP-40 vs SDS log2 ratios) (log2 ratio difference); higher = more soluble in mitosis
[2] = test system: HeLa Kyoto; experiment: melting temperature (median over replicates), in situ; higher = more thermally stable
[3] = test system: HeLa Kyoto; experiment: solubility in G1/S (NP-40 vs SDS abundance) (log2 ratio); higher = more soluble; settings: cell cycle stage: G1/S
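Throughout, for melting temperature (median over replicates), in situ: HeLa Kyoto cells synchronized by double thymidine or nocodazole block, proteins quantified by TMT10plex mass spectrometry, three independent biological replicates.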
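Throughout, for solubility change mitosis vs G1/S (difference of NP-40 vs SDS log2 ratios): synchronized HeLa Kyoto cells (double thymidine block for G1/S, nocodazole release for mitosis), protein amounts in NP-40 versus SDS lysates quantified by mass spectrometry, three biological replicates.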
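Throughout, for solubility in G1/S (NP-40 vs SDS abundance): HeLa Kyoto cells arrested at G1/S by double thymidine block, proteins quantified by TMT10plex mass spectrometry in mild NP-40 versus SDS extracts, three biological replicates.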

Sequence | solubility change mitosis (log2) [1] | melting temperature ([2]; cell cycle stage: G1/S) | melting temperature ([2]; cell cycle stage: mitosis) | solubility in G1/S (log2) [3]
MDTEPNPGTSSVSTTTSSTTTTTITTSSSRMQQPQISVYSGSDRHAVQVIQQALHRPPSSAAQYLQQMYAAQQQHLMLHTAALQQQHLSSSQLQSLAAVQASLSSGRPSTSPTGSVTQQSSMSQTSINLSTSPTPAQLISRSQASSSTSGSITQQTMLLGSTSPTLTASQAQMYLRAQMLIFTPATTVAAVQSDIPVVSSSSSSSCQSAATQVQNLTLRSQKLGVLSSSQNGPPKSTSQTQSLTICHNKTTVTSSKISQRDPSPESNKKGESPSLESRSTAVTRTSSIHQLIAPASYSPIQPHSLIKHQQIPLHSPPSKVSHHQLILQQQQQQIQPITLQNSTQDPPPSQHCIPLQNHGLPPAPSNAQSQHCSPIQSHPSPLTVSPNQSQSAQQSVVVSPPPPHSPSQSPTIIIHPQALIQPHPLVSSALQPGPNLQQSTANQVQATAQLNLPSHLPLPASPVVHIGPVQQSALVSPGQQIVSPSHQQYSSLQSSPIPIASPPQMSTSPPAQIPPLPLQSMQSLQVQPEILSQGQVLVQNALVSEEELPAAEALVQLPFQTLPPPQTVAVNLQVQPPAPVDPPVVYQVEDVCEEEMPEESDECVRMDRTPPPPTLSPAAITVGRGEDLTSEHPLLEQVELPAVASVSASVIKSPSDPSHVSVPPPPLLLPAATTRSNSTSMHSSIPSIENKPPQAIVKPQILTHVIEGFVIQEGLEPFPVSRSSLLIEQPVKKRPLLDNQVINSVCVQPELQNNTKHADNSSDTEMEDMIAEETLEEMDSELLKCEFCGKMGYANEFLRSKRFCTMSCAKRYNVSCSKKFALSRWNRKPDNQSLGHRGRRPSGPDGAAREHILRQLPITYPSAEEDLASHEDSVPSAMTTRLRRQSERERERELRDVRIRKMPENSDLLPVAQTEPSIWTVDDVWAFIHSLPGCQDIADEFRAQEIDGQALLLLKEDHLMSAMNIKLGPALKICARINSLKES [PHC3] | 0.439 | 46.5 °C | 50.2 °C | -0.44
MEEEGVKEAGEKPRGAQMVDKAGWIKKSSGGLLGFWKDRYLLLCQAQLLVYENEDDQKCVETVELGSYEKCQDLRALLKRKHRFILLRSPGNKVSDIKFQAPTGEEKESWIKALNEGINRGKNKAFDEVKVDKSCALEHVTRDRVRGGQRRRPPTRVHLKEVASAASDGLLRLDLDVPDSGPPVFAPSNHVSEAQPRETPRPLMPPTKPFLAPETTSPGDRVETPVGERAPTPVSASSEVSPESQEDSETPAEEDSGSEQPPNSVLPDKLKVSWENPSPQEAPAAESAEPSQAPCSETSEAAPREGGKPPTPPPKILSEKLKASMGEMQASGPPAPGTVQVSVNGMDDSPEPAKPSQAEGTPGTPPKDATTSTALPPWDLPPQFHPRCSSLGDLLGEGPRHPLQPRERLYRAQLEVKVASEQTEKLLNKVLGSEPAPVSAETLLSQAVEQLRQATQVLQEMRDLGELSQEAPGLREKRKELVTLYRRSAP [PLEKHO2] | 0.0528 | 53.2 °C | 51.9 °C | 0.188
MEELTIWEQHTATLSKDPRRGFGIAISGGRDRPGGSMVVSDVVPGGPAEGRLQTGDHIVMVNGVSMENATSAFAIQILKTCTKMANITVKRPRRIHLPATKASPSSPGRQDSDEDDGPQRVEEVDQGRGYDGDSSSGSGRSWDERSRRPRPGRRGRAGSHGRRSPGGGSEANGLALVSGFKRLPRQDVQMKPVKSVLVKRRDSEEFGVKLGSQIFIKHITDSGLAARHRGLQEGDLILQINGVSSQNLSLNDTRRLIEKSEGKLSLLVLRDRGQFLVNIPPAVSDSDSSPLEDISDLASELSQAPPSHIPPPPRHAQRSPEASQTDSPVESPRLRRESSVDSRTISEPDEQRSELPRESSYDIYRVPSSQSMEDRGYSPDTRVVRFLKGKSIGLRLAGGNDVGIFVSGVQAGSPADGQGIQEGDQILQVNDVPFQNLTREEAVQFLLGLPPGEEMELVTQRKQDIFWKMVQSRVGDSFYIRTHFELEPSPPSGLGFTRGDVFHVLDTLHPGPGQSHARGGHWLAVRMGRDLREQERGIIPNQSRAEQLASLEAAQRAVGVGPGSSAGSNARAEFWRLRGLRRGAKKTTQRSREDLSALTRQGRYPPYERVVLREASFKRPVVILGPVADIAMQKLTAEMPDQFEIAETVSRTDSPSKIIKLDTVRVIAEKDKHALLDVTPSAIERLNYVQYYPIVVFFIPESRPALKALRQWLAPASRRSTRRLYAQAQKLRKHSSHLFTATIPLNGTSDTWYQELKAIIREQQTRPIWTAEDQLDGSLEDNLDLPHHGLADSSADLSCDSRVNSDYETDGEGGAYTDGEGYTDGEGGPYTDVDDEPPAPALARSSEPVQADESQSPRDRGRISAHQGAQVDSRHPQGQWRQDSMRTYEREALKKKFMRVHDAESSDEDGYDWGPATDL [TJP3] | 0.0692 | 50.3 °C | 50.8 °C | -0.105
MEGGGGIPLETLKEESQSRHVLPASFEVNSLQKSNWGFLLTGLVGGTLVAVYAVATPFVTPALRKVCLPFVPATTKQIENVVKMLRCRRGSLVDIGSGDGRIVIAAAKKGFTAVGYELNPWLVWYSRYRAWREGVHGSAKFYISDLWKVTFSQYSNVVIFGVPQMMLQLEKKLERELEDDARVIACRFPFPHWTPDHVTGEGIDTVWAYDASTFRGREKRPCTSMHFQLPIQA [FAM173B] | -0.0503 | 54.7 °C |  | -0.208
MEGQSVEELLAKAEQDEAEKLQRITVHKELELQFDLGNLLASDRNPPTGLRCAGPTPEAELQALARDNTQLLINQLWQLPTERVEEAIVARLPEPTTRLPREKPLPRPRPLTRWQQFARLKGIRPKKKTNLVWDEVSGQWRRRWGYQRARDDTKEWLIEVPGNADPLEDQFAKRIQAKKERVAKNELNRLRNLARAHKMQLPSAAGLHPTGHQSKEELGRAMQVAKVSTASVGRFQERLPKEKVPRGSGKKRKFQPLFGDFAAEKKNQLELLRVMNSKKPQLDVTRATNKQMREEDQEEAAKRRKMSQKGKRKGGRQGPGGKRKGGPPSQGGKRKGGLGGKMNSGPPGLGGKRKGGQRPGGKRRK [RRS1] | 1.09 | 55.2 °C | 53 °C | -1.81
MELERIVSAALLAFVQTHLPEADLSGLDEVIFSYVLGVLEDLGPSGPSEENFDMEAFTEMMEAYVPGFAHIPRGTIGDMMQKLSGQLSDARNKENLQPQSSGVQGQVPISPEPLQRPEMLKEETRSSAAAAADTQDEATGAEEELLPGVDVLLEVFPTCSVEQAQWVLAKARGDLEEAVQMLVEGKEEGPAAWEGPNQDLPRRLRGPQKDELKSFILQKYMMVDSAEDQKIHRPMAPKEAPKKLIRYIDNQVVSTKGERFKDVRNPEAEEMKATYINLKPARKYRFH [CUEDC2] | 0.134 | 46.8 °C | 51.7 °C | 0.417
